Measurements: patent US20260224446A1, “BIFUNCTIONAL PEPTIDES USEFUL FOR COLLAGEN INTRAFIBRILLAR MINERALIZATION” (University of Kansas, priority 2023, published 2026)
Values joined by “and” are separate entries in the source; they are usually repeats but may differ in a detail not shown here. Equal values may be shown once. No end group written: not given here.

Assays:
[1] = ALP-driven mineralization of adhesive/dentin specimen with HABP1, RAMAN imaging with Divisive Clustering Analysis; format: biochemical, human; conditions: for MNRp 960/1460: RAMAN peak ratio; for FMHW PO4^−3): RAMAN, after ALP-driven mineralization; for GMC 1078/960: carbonate to phosphate peak ratio; for Ca-P/collagen 960/1667: phosphate to amide I peak ratio
Description: (§1) ALP-driven mineralization was executed following the protocol discussed in Gungormus et al. (2008). The mineralization buffer prepared was composed of 24.4 Ca^2+ mM and 14.4 mM B-glycerophosphate made in 25 mM Tris-HCl buffer at pH 7.4, and 200 μL/well was added to a 24-well plate. Collagen-peptide samples were placed gently within the well to lay flat at the bottom. The mineralization reaction was initiated by adding FastAP (thermosensitive alkaline phosphatase), 1.4×10^−6 g/mL, and left to incubate at 37° C. for 20 min. The samples were then removed from the wells, gently rinsed in sterile-filtered water, and left to air dry overnight. Throughout this process the samples were handled in a horizontally flat manner to prevent disturbing the peptide-functionalized collagen layer on the surface of the substrate.
Demineralized dentin samples, adhesive/dentin samples (pre/post mineralization), and SC collagen on glass were imaged using a LabRAM ARAMIS Raman microscope (HORIBA Jobin Yvon, Edison, NJ, USA), equipped with a HeNe laser (2=[…], laser power=17 mW). Light micrograph images were taken using a 50× long working distance objective Olympus lens. The samples spectra were evaluated over a wavelength range of 300 cm^−1 to 1800 cm^−1 with a 15 s spectra acquisition time of 4 acquisitions per cycle and processed using LabSPEC 6 software (HORIBA Jobin Yvon, Edison, NJ, USA). Divisive Clustering Analysis (DCA) was used to classify and group respective spectra. This multivariate analysis method was integrated into the LabSPEC 6 analysis software as a Multivariate Analysis (MVA) module (powered by Eigenvector Research Inc., HORIBA Jobin Yvon, NJ, USA). A rectangular area of the surface was imaged and submitted to this multivariate analysis where a statistical pattern determined derived independent clusters to present chemically distinct regions. Average spectra are calculated per cluster which were used to provide information on particular peak parameters and component distribution in the resulting spectra. These components were analyzed for relative degree of mineralization via mineral-to-matrix ratio (MMR), inferred from the ratio of peak intensities at 960 cm^−1 (phosphate) and 1460 cm^−1 (CH2 bending), crystallinity via full width at half maximum (FWHM) from the v1 phosphate band (960 cm^−1), and the carbonate content of mineral crystallites via gradient in mineral content (GMC), based on ratio of relative carbonate (10^70 cm^−1) and phosphate (960 cm^−1) peak heights. The calcium-phosphate (Ca/P) to collagen ratio was also assessed to understand the relative thickness of the mineral formed during mineralization. This would help in comparative evaluations between the samples.
Next evaluated was the use of HABP1 to potentially direct mineralization within the adhesive/demineralized dentin hybrid layer. To do this RAMAN Divisive Clustering Analysis (DCA) was used, a hierarchical k-means clustering method which is useful for identifying the internal structure of multi-layer datasets. We mapped the most distinctive mineral composition variations associated with the collagen matrix structural variations according to their RAMAN spectra. […] The DCA method measures similarity in three parameters: ratio of 960/1460 peak (e.g., mineral-to-matrix ratio), ratio of 1078/960 (gradient mineral carbonation, GMC: carbonate to phosphate) peak, and ratio of the 960/1667 peaks (phosphate to collagen with retained amide I structure, Ca/P collagen). The spectral feature at 1460 cm^−1 is assigned to the CH2 wag for collagen, and 1667 cm^−1 is the amide I peak for the collagen used. The 960 cm^−1 peak is the v1 phosphate stretching vibration associated with the mineral and 10^78 cm^−1 is the band for v1 carbonate. The method clusters the following groups: collagen only, mineral group I, and mineral group II. […]

[2] = molecular target: T1, Type 1 rat tail collagen (Rattus norvegicus, UniProt P02454+P02466); assay: Collagen fibril self-assembly with incorporated peptide, AFM topography fibril widths; conditions: peptide co-assembled with collagen (50 nanomoles in 1 mL of 3 mg/mL), drop-cast on mica
T1 construct: Collagen Type 1 solution from rat tail (3 mg/mL, C3867, 95%) was purchased from Sigma-Aldrich; purchased Sigma-Aldrich C3867; host or cells: rat tail (tissue-derived)
T1 sequence (P02466 86-1125 limits assumed): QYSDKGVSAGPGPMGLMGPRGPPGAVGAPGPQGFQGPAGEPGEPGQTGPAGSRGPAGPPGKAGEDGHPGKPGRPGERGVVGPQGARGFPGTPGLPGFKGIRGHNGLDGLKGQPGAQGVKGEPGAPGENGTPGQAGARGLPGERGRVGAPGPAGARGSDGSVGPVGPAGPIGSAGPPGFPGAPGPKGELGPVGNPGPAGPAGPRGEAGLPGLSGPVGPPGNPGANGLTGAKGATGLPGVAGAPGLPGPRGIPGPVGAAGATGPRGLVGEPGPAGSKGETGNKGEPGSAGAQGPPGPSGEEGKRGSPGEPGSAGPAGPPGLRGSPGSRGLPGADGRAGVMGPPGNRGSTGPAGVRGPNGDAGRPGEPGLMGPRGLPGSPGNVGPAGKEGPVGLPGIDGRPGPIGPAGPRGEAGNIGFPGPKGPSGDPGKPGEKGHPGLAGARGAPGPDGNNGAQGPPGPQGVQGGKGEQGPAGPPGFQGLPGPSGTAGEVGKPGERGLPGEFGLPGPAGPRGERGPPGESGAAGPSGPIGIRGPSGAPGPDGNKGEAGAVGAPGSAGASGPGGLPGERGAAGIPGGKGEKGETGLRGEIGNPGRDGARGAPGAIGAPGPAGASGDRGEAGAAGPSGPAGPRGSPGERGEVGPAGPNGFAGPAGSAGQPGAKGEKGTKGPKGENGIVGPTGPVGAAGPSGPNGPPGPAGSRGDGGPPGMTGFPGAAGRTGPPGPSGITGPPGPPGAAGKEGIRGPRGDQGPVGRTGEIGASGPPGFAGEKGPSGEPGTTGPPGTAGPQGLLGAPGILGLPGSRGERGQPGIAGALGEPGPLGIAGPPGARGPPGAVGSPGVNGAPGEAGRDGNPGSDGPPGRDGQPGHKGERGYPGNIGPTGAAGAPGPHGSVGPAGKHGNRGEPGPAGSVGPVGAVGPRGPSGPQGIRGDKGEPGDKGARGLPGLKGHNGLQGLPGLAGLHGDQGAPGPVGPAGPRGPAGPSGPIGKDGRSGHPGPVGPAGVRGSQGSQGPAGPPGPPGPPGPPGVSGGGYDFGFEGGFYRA
T1 sequence (P02454 152-1207 limits assumed): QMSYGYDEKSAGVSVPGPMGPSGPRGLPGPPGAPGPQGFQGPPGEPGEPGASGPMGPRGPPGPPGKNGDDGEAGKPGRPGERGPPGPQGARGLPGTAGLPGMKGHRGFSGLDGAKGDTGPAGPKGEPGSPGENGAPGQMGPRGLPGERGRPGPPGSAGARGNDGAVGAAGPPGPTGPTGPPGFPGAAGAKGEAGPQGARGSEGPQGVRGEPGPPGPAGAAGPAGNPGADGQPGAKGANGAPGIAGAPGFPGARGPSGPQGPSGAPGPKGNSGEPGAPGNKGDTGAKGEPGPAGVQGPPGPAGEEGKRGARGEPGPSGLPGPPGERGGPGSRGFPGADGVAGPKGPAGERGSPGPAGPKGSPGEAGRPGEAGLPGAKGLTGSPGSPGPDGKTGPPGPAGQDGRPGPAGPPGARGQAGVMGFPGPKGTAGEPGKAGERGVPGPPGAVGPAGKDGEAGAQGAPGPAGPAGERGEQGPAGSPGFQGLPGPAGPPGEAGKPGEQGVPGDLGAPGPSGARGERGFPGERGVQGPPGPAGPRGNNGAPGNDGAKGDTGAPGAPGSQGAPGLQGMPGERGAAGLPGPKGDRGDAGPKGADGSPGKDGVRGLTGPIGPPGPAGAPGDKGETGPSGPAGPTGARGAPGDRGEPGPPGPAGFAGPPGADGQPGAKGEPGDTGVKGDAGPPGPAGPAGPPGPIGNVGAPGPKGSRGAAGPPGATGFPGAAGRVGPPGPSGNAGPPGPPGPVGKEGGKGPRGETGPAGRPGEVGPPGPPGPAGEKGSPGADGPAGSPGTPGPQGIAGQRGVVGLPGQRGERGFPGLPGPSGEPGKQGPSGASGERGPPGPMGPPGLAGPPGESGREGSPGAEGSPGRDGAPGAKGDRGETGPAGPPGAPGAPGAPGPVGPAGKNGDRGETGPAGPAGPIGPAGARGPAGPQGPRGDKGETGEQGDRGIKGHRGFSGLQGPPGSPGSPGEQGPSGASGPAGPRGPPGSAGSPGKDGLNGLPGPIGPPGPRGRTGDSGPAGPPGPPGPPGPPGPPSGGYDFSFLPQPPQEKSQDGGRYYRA
Description: (§2) Grade V1 round mica, 0.21 mm thick and 12 mm in diameter, was used as the substrate surface and mounted onto a 12 mm atomic force microscopy specimen disc using STKYDOT adhesive. In 1 mL of 3 mg/mL Type 1 rat tail collagen suspension, 50 nanomoles of peptide were added. The ratio of mass collagen to mass peptide ranged from 100 wt collagen: 1 wt peptide for single domains to 100 wt collagen: 3 wt peptide for the chimeric peptide. Once peptide was dissolved and gently mixed in the collagen suspension, 150 μL was drop-cast onto the substrate surface and left to self-assemble at 4° C. for 16 h.
(§3) A Bruker Multimode 8 HR scanning probe microscope (Bruker Nano Inc., Camarillo, CA, USA) was operated in peak force tapping mode with the capability of Quantitative Nanomechanics (PeakForce-QNM) in air mode conditions (24±2° C., 40%±5% RH). This advanced testing mode was used to examine the topographical and nanomechanical property changes of the collagen-peptide samples both before and after mineralization. Tapping mode etched silicon probes, type RTESPA 525-30 (Bruker Nano Inc., Camarillo, CA, USA) with a resonant frequency of about 518 kHz, were used to acquire images (1 μm×3 μm and 5 μm×5 μm) at scan rate of 0.5 Hz with 512 pixel/line resolution. The images of the samples were recorded using NanoScope 8.15 software and analyzed using NanoScope Analysis 2.0 software (Bruker Nano Inc., Camarillo, CA, USA).
Building upon the conformational flexibility of the peptide, the CBP-HABP1 peptide was then studied for the assembly properties on the collagen fibrils on mica substrate using AFM topography image analysis. The images were acquired in tapping mode. Non-fibril features, indicated as intensity saturated regions on the surface, are acetic acid salt crystals from the evaporation of the solution in which the collagen was suspended. These features were excluded from image to prevent signal shadowing of the surface fibril assembly. […] Collagen+ (CBP-HABP1) fibrils were measured to be smaller than collagen-alone fibrils, resulting in a statistically significant difference. […]

[3] = molecular target: T1, Type 1 rat tail collagen; assay: SEM/EDS of Ca-P deposits on peptide-incorporated collagen after ALP-driven mineralization; format: biochemical; conditions: for average Ca—P ratio: EDS, initial mineral on peptide-incorporated collagen after 20 min ALP-driven mineralization; for mineral formation morphology on SEM images: peptide-incorporated collagen after ALP-driven mineralization
Description: as §2, §1
In order to examine initial intrafibrillar mineral formation and morphology and determine Ca/P ratios precipitated on the peptide-functionalized collagen surface, a Cold Field Emission Scanning […] Microscope (SEM, S-4700 model, Hitachi High-Tech America, Schaumburg, IL, USA) equipped with a silicon drift energy-dispersive detector (EDS, X-max, Oxford Instruments, Concord, MA, USA) was used via the Microscopy and Analytical Imaging Research Resource Core Laboratory (RRID:SCR_021801). Collagen-peptide samples were sputter-coated with 3 nm gold using a Quorum sputter coating system (Q150, Quorum, Laughton, East Sussex, UK). SEM imaging was completed at an acceleration voltage of 10 kV at ultra-high resolution operating mode and EDS measurements were made at 10 kV under normal operating mode to preserve the integrity of the collagen-peptide layer and prevent burning during signal capture. EDS analysis was performed through AZtec software (X-MaxN, Oxford Instruments, Concord, MA, USA).
The composition and morphology of the Ca—P deposits formed on collagen samples were examined using scanning electron microscopy (SEM) with energy dispersive X-ray analysis (EDS). […] The EDS results validated the finding of Ca—P mineral isomorphs on the peptide-incorporated collagen platforms. The calcium/phosphate ratios were calculated to examine compositional differences. […] Whereas collagen+ (CBP) and collagen+ (CBP-HABP1) had comparatively lower average Ca—P ratios at 1.30 and 1.25, respectively. These values are similar to the molar ratio of octacalcium phosphate, which is around 1.33, and amorphous calcium phosphate (ACP), which is roughly 1.50 [54-57].

[4] = molecular target: T1, Type 1 rat tail collagen; assay: PeakForce-QNM AFM modulus mapping of peptide-functionalized collagen pre/post ALP-driven mineralization; conditions: peptide incorporated into collagen
Description: as §2, §1, §3
Building on the observed effects of the chimeric peptide on the collagen, next examined was if there was a change on the mechanical properties of the collagen due to the peptide presence. Quantitative modulus mapping was executed via PeakForce-QNM AFM to observe the changes in the elastic modulus distribution on the surfaces. The elastic modulus was previously established to be derived by using the Derjaguin-Muller-Toropov (DMT) model, and is thus reported as the DMT modulus. […]

[5] = molecular target: T1, Type 1 rat tail collagen; assay: MicroXCT imaging of mineral formed within peptide-incorporated collagen after ALP-driven mineralization; format: biochemical; conditions: MicroXCT shaded surface display, 20-min ALP-driven mineralization
Description: as §2
ALP-driven mineralization was executed following the protocol discussed in Gungormus et al. (2008). The mineralization buffer prepared was composed of 24.4 Ca^2+ mM and 14.4 mM B-glycerophosphate made in 25 mM Tris-HCl buffer at pH 7.4, and 200 μL/well was added to a 24-well plate. […]
The microscale structure of the mineral formed within the peptide-incorporated collagen platform as a physical indicator of intrafibrillar mineralization, was observed using 3D X-ray microcomputed tomography (MicroXCT-400, Xradia Inc., Pleasanton, CA, USA). […] The 3D images were reconstructed using the XM Reconstructor 8.0 software and were analyzed from an orthogonal view using a TXM 3D Viewer under the […] surface display (SSD) mode (Xradia Inc., Pleasanton, CA, USA). […]

[6] = molecular target: Collagen Type 1 solution from rat tail (3 mg/mL, C3867, Sigma-Aldrich) (rat, UniProt P02454 152-1207; P02466 86-1125); assay: cell-based or functional assay
Sequence of Collagen Type 1 solution from rat tail (3 mg/mL, C3867, Sigma-Aldrich) (P02454 152-1207 limits assumed, chain 1 of 2): as the sequence (P02454 152-1207 limits assumed) above
Sequence of Collagen Type 1 solution from rat tail (3 mg/mL, C3867, Sigma-Aldrich) (P02466 86-1125 limits assumed, chain 2 of 2): as the sequence (P02466 86-1125 limits assumed) above

[7] = after 20 min ALP-driven mineralization

| Mean fibril width [2] | average Ca—P ratio [3] | DMT (elastic) modulus [4, 7] [GPa] | DMT (elastic) modulus ([4]; pre-mineralization) [GPa] | fibril width, Coefficient of variation, AFM topographical imaging [6] | fibril width, Standard Deviation, AFM topographical imaging [6] [nm] | Molecule | mineral formation morphology on SEM images [3] | also measured |
| --- | --- | --- | --- | --- | --- | --- | --- | --- |
| – | – | – | – | 32.1 | 26.5 | TKKLTLRTAPAMLPHHGA [bifunctional peptide TKKLTLRT-APA-MLPHHGA (CBP-HABP1)] | – | – |
| – | – | – | – | 17 | 20.7 | TKKLTLRT-OH [collagenase-collagen-binding peptide (CBP), TKKLTLRT] | – | – |
| – | – | – | – | 67.5 | 87.6 | MLPHHGA-OH [hydroxyapatite-binding peptide (HABP1), MLPHHGA] | – | – |

The remaining lines, values behind:

| Molecule | Mean fibril width [2] | average Ca—P ratio [3] | DMT (elastic) modulus [4, 7] [GPa] | DMT (elastic) modulus ([4]; pre-mineralization) [GPa] | fibril width, Coefficient of variation, AFM topographical imaging [6] | fibril width, Standard Deviation, AFM topographical imaging [6] [nm] | mineral formation morphology on SEM images [3] | also measured |
| --- | --- | --- | --- | --- | --- | --- | --- | --- |
| MLPHHGA [HABP1] | 129.9 nm and 129.90 nm | 1.41 | – | – | – | – | more extensively branched columnar mineral growth as well as plate-like mineral growth | MNRp 960/1460 ([1]; DCA class HABP1 Mineral II): 3.59; FMHW PO4^−3) ([1]; DCA class HABP1 Mineral II): 35.6; GMC 1078/960 ([1]; DCA class HABP1 Mineral II): 0.22; Ca-P/collagen 960/1667 ([1]; DCA class HABP1 Mineral II): 13.2; MNRp 960/1460 ([1]; DCA class HABP1 mineral I): 2.88; FMHW PO4^−3) ([1]; DCA class HABP1 mineral I): 39.6; GMC 1078/960 ([1]; DCA class HABP1 mineral I): 0.31; Ca-P/collagen 960/1667 ([1]; DCA class HABP1 mineral I): 23.9; mineralization shown with a RAMAN peak consistent with CaPO4 formation (960 cm^−1) ([1]; adhesive/dentin specimen, compared with mineralization procedure without peptide): mediates mineralization |
| TKKLTLRT [CBP] | 121.4 nm and 121.40 nm | 1.30 | 6.52 | 5.16 | – | – | branched columnar mineral growth | – |
| TKKLTLRTAPAMLPHHGA [CBP-HABP1] | 82.37 nm | 1.25 | 5.83 | 5.25 | – | – | more extensively branched columnar mineral growth as well as plate-like mineral growth | void areas in collagen interior [5]: almost no void areas; density of mineralized collagen layer ([5]; versus collagen control): denser formation compared to ALP-based mineralized collagen samples |
